Measurements from PMC4389316, “C-terminal residues of skeletal muscle calsequestrin are essential for calcium binding and for skeletal ryanodine receptor inhibition” (Skeletal Muscle, 2015).

B1: wild-type (WT) calsequestrin type 1 (CSQ1), rabbit [rabbit] / skeletal triadin 95 kDa (trisk95) [rabbit (endogenous in skeletal muscle SR vesicles)] (parent)
chain 1: EEGLDFPEYDGVDRVINVNAKNYKNVFKKYEVLALLYHEPPEDDKASQRQFEMEELILELAAQVLEDKGVGFGLVDSEKDAAVAKKLGLTEEDSIYVFKEDEVIEYDGEFSADTLVEFLLDVLEDPVELIEGERELQAFENIEDEIKLIGYFKNKDSEHYKAFKEAAEEFHPYIPFFATFDSKVAKKLTLKLNEIDFYEAFMEEPVTIPDKPNSEEEIVNFVEEHRRSTLRKLKPESMYETWEDDMDGIHIVAFAEEADPDGYEFLEILKSVAQDNTDNPDLSIIWIDPDDFPLLVPYWEKTFDIDLSAPQIGVVNVTDADSVWMEMDDEEDLPSAEELEDWLEDVLEGEINTEDDDDEDDDDDDDD
chain 2: MTEITAEGNASTTTTVIDSKNGSVPKSPGKVLKRTVTEDLVTTFSSPAAWLLVIALIITWSAVAVVMFDLVDYKNFSASSIAKMGSDPLKLVHDAVEETTDWIYGFFSLLSDIISSDGDEEDDEGDEDTAKGEIEEPPLKRKDIHKEKIEKQEKPERKIPTKVVHKEKEKEKEKVKEKEKPEKKATHKEKLEKKEKPETKTVTKEEKKARTKEKIEEKTKKEVKGVKQEKVKQTVAKAKEVQKTPKPKEKESKETAAVSKQEQKDQYAFCRYMIDIFVHGDLKPGQSPAIPPPSPTEQASRPTPALPTPEEKEGEKKKAEKKVTTETKKKAEKEDAKKKSEKETDIDMKKKEPGKSPDTKPGTVKVTTQAATKKDEKKEDSKKAKKPAEEQPKGKKQEKKEKHEEPAKSTKKEHAAPSEKQAKAKIERKEEVSAASTKKAVPAKKEEKTTKTVEQETRKEKPGKISSVLKDKELTKEKEVKVPASLKEKGSETKKDEKTSKPEPQIKKEEKPGKEVKPKPPQPQIKKEEKPEQDIMKPEKTALHGKPEEKVLKQVKAVTTEKHVKPKPAKKAEHQEKEPPSIKTDKPKSTSKGMPEVTESGKKKIEKSEKEIKVPARRESHQLQNVTKAEKPARGSKEGFEDVPASKKAKEEAEEVSSTKKQKSPISFFQCVYLDGYNGYGFQFPVTPAQYPGESSGKPNSPGPKQ

Variants of: B1
Assay: co-immunoprecipitation (CSQ1 IP, Western blot densitometry)
Details: with skeletal triadin 95 kDa (trisk95) [rabbit (endogenous in skeletal muscle SR vesicles)]; 1 mM Ca2+; parent: 100; read off a plot

| percent of parent (% relative binding) | Variant |
| --- | --- |
| 84 | chain 1 EEGLDFPEYDGVDRVINVNAKNYKNVFKKYEVLALLYHEPPEDDKASQRQFEMEELILELAAQVLEDKGVGFGLVDSEKDAAVAKKLGLTEEDSIYVFKEDEVIEYDGEFSADTLVEFLLDVLEDPVELIEGERELQAFENIEDEIKLIGYFKNKDSEHYKAFKEAAEEFHPYIPFFATFDSKVAKKLTLKLNEIDFYEAFMEEPVTIPDKPNSEEEIVNFVEEHRRSTLRKLKPESMYETWEDDMDGIHIVAFAEEADPDGYEFLEILKSVAQDNTDNPDLSIIWIDPDDFPLLVPYWEKTFDIDLSAPQIGVVNVTDADSVWMEMDDEEDLPSAEELEDWLEDVLEGEINTEDDDDEDDDADADA [chain 1 D363A D365A D367A] |
| 86 | chain 1 EEGLDFPEYDGVDRVINVNAKNYKNVFKKYEVLALLYHEPPEDDKASQRQFEMEELILELAAQVLEDKGVGFGLVDSEKDAAVAKKLGLTEEDSIYVFKEDEVIEYDGEFSADTLVEFLLDVLEDPVELIEGERELQAFENIEDEIKLIGYFKNKDSEHYKAFKEAAEEFHPYIPFFATFDSKVAKKLTLKLNEIDFYEAFMEEPVTIPDKPNSEEEIVNFVEEHRRSTLRKLKPESMYETWEDDMDGIHIVAFAEEADPDGYEFLEILKSVAQDNTDNPDLSIIWIDPDDFPLLVPYWEKTFDIDLSAPQIGVVNVTDADSVWMEMDDEEDLPSAEELEDWLEDVLEGEINTEDDDDEDDDDDDDA [chain 1 D367A] |
| 110 | chain 1 EEGLDFPEYDGVDRVINVNAKNYKNVFKKYEVLALLYHEPPEDDKASQRQFEMEELILELAAQVLEDKGVGFGLVDSEKDAAVAKKLGLTEEDSIYVFKEDEVIEYDGEFSADTLVEFLLDVLEDPVELIEGERELQAFENIEDEIKLIGYFKNKDSEHYKAFKEAAEEFHPYIPFFATFDSKVAKKLTLKLNEIDFYEAFMEEPVTIPDKPNSEEEIVNFVEEHRRSTLRKLKPESMYETWEDDMDGIHIVAFAEEADPDGYEFLEILKSVAQDNTDNPDLSIIWIDPDDFPLLVPYWEKTFDIDLSAPQIGVVNVTDADSVWMEMDDEEDLPSAEELEDWLEDVLEGEINTEDDDDEDDDDDADA [chain 1 D365A D367A] |
